Assay results from article PMC4264578.
Read-outs that look alike come from different tables or passages of the source.

How the values were obtained:
Experiment in all cases: EMSA
GST-SUV39H1 [1] = target: T1, GST-SUV39H1 (UniProt O43463 1-412)
T1 sequence: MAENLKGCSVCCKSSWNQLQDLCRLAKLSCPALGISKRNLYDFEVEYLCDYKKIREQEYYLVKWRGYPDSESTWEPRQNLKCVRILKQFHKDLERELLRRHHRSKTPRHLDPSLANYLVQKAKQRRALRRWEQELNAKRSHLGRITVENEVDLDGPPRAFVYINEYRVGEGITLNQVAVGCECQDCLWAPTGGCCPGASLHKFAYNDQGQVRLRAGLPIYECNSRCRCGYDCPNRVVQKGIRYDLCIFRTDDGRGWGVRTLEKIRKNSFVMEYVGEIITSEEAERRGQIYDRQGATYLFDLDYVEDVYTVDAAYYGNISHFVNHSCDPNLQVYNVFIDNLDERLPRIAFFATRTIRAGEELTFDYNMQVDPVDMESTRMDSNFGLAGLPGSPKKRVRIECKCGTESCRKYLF

GST-SUV39H1 [2] = target: T1, GST-SUV39H1; remark: listed apart in the source
GST-SUV39H1 [3] = target: T1, GST-SUV39H1; remark: listed apart in the source

B1: (TTAGGG)10 DNA (ssDNA)
DNA: TTAGGGTTAGGGTTAGGGTTAGGGTTAGGGTTAGGGTTAGGGTTAGGGTTAGGGTTAGGG
**Q.** Does B1 bind (GST-SUV39H1 [1])?
**A.** no binding

B2: (UUAGGG)10 TERRA RNA (ssRNA)
RNA: UUAGGGUUAGGGUUAGGGUUAGGGUUAGGGUUAGGGUUAGGGUUAGGGUUAGGGUUAGGG
**Q.** Does B2 bind (GST-SUV39H1 [2])?
**A.** binds

**Q.** Does UUAGGGUUAGGGUUAGGGUUAGGGUUAGGGUUAGGGUUAGGG (ssRNA) [(UUAGGG)7 TERRA RNA] bind (GST-SUV39H1 [3])?
**A.** binds
